The values that follow come from patent publication US20260146091A1 (published 2026).

In test [1] the target is mPD-L1-Fc (mouse PD-L1 ectodomain fused to human IgG1 Fc, BioLegend) (mouse, UniProt Q9EP73 19-239). The test is described as follows: mPD-1/mPD-L1 binding inhibition.
Test [2] has as its target biotinylated hPD-L1 fused to human IgG Fc (BPS Bioscience) (human, UniProt Q9NZQ7 19-238, biotinylated (site not stated)). The test is described as follows: hPD-1/hPD-L1 binding inhibition.
Test [3] concerns the target T1, biotinylated mPD-1-Fc (BPS Bioscience) (mouse, UniProt Q02242 25-169, biotinylated (site not stated)).
T1 chain: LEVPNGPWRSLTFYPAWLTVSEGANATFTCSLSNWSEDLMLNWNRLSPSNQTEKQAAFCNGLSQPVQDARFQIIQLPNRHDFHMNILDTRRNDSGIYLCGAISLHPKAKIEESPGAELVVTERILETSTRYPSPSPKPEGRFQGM
Kind of test: mPD-1/mPD-L1 binding inhibition.

The target of test [4] is hPD-1-Fc (human PD-1 ectodomain fused to human IgG1 Fc, R&D) (human, UniProt Q15116 25-170). Kind of test: hPD-1/hPD-L1 binding inhibition.
Chain of hPD-1-Fc (human PD-1 ectodomain fused to human IgG1 Fc, R&D) (Q15116 25-170): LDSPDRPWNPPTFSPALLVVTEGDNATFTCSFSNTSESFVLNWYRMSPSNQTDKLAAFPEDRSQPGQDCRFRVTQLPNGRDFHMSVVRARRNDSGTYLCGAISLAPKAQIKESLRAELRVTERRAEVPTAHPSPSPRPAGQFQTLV

Chain of biotinylated hPD-L1 fused to human IgG Fc (BPS Bioscience) (Q9NZQ7 19-238): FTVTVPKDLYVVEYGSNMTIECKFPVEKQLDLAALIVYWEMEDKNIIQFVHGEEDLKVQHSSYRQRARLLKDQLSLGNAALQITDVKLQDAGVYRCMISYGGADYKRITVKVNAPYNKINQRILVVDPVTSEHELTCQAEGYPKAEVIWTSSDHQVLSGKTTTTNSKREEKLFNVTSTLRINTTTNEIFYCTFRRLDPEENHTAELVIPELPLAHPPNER
Chain of mPD-L1-Fc (mouse PD-L1 ectodomain fused to human IgG1 Fc, BioLegend) (Q9EP73 19-239): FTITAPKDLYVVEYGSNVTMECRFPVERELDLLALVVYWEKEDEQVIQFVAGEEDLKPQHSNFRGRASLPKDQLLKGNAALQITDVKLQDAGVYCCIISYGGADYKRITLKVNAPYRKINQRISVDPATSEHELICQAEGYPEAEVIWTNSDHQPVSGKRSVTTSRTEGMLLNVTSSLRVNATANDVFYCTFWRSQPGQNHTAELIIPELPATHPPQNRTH

B1: Nb6p-Fc (Nb6p fused to mouse IgG2a Fc domain including hinge) (Fc fusion)
chain: AEVQLVESGGGLVQAGGSLRLSCAAAGRSFNSNAMGWVRQAPGKEREIVAVISATGSYTYYEDSVKGRFTISRDNSKNTVSLQMSSLSSEDTAVYYCAGSRTAALTTIMTLFNYWGQGTQVTVSSPGPRGPTIKPCPPCKCPAPNLLGGPSVFIFPPKIKDVLMISLSPIVTCVVVDVSEDDPDVQISWFVNNVEVHTAQTQTHREDYNSTLRVVSALPIQHQDWMSGKEFKCKVNNKDLPAPIERTISKPKGSVRAPQVYVLPPPEEEMTKKQVTLTCMVTDFMPEDIYVEWTNNGKTELNYKNTEPVLDSDGSYFMYSKLRVEKKNWVERNSYSCSVVHEGLHNHHTTKSFSRTPGK
One may read the IC50 as the concentration that inhibits the measured activity by half. Read a high IC50 as weaker potency in that assay. As to B1, the IC50 was found to be 0.889 nM in test [1] and 0.498 nM in test [2].

B2: Nb11 (anti-PD-1 nanobody) (VHH)
VHH: QVQLVQSGGGSVQAGDSLRLSCAVSGHPDSSYSMAWFRQAPGKERELVALISWSGAITHYSDSVKDRFTISRDNAKNEMYLQMDSLKPEDTAVYFCQADDPTSELNQYWGQGTQVTVSS
B2: the values for the IC50 in test [3] and in test [4] were 1.71 nM and 5.85 nM, respectively.

B3: Nb6p (anti-PD-L1 nanobody) (VHH)
VHH: EVQLVESGGGLVQAGGSLRLSCAAAGRSFNSNAMGWVRQAPGKEREIVAVISATGSYTYYEDSVKGRFTISRDNSKNTVSLQMSSLSSEDTAVYYCAGSRTAALTTIMTLFNYWGQGTQVTVSS
Turning to B3, the 50% inhibitory concentration (IC50) was found to be 6.85 nM in test [1] and 3.34 nM in test [2].

B4: Nb11-Fc (Nb11 fused to mouse IgG1 Fc domain including hinge) (Fc fusion)
chain: AQVQLVQSGGGSVQAGDSLRLSCAVSGHPDSSYSMAWFRQAPGKERELVALISWSGAITHYSDSVKDRFTISRDNAKNEMYLQMDSLKPEDTAVYFCQADDPTSELNQYWGQGTQVTVSSGCKPCICTVPEVSSVFIFPPKPKDVLTITLTPKVTCVVVDISKDDPEVQFSWFVDDVEVHTAQTQPREEQFNSTFRSVSELPIMHQDWLNGKEFKCRVNSAAFPAPIEKTISKTKGRPKAPQVYTIPPPKEQMAKDKVSLTCMITDFFPEDITVEWQWNGQPAENYKNTQPIMDTDGSYFVYSKLNVQKSNWEAGNTFTCSVLHEGLHNHHTEKSLSHSPGK
Consider B4, for which the figures for the IC50 in test [3] and in test [4] were 0.0439 nM and 0.147 nM, respectively.
